A short description of the series: soluble fraction after stress (log2 fold change); higher = more stays soluble; pooled small domains, quantitative proteomics. As to conditions: stress: 75 degC.
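Also: 20 min heating vs room temperature control held 20 min.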

Turning to “HMIGTPLSEWQKDAPEEITRDQIAELVILKFVTVEQLALASDAQLQRIGMGGVGLRERAKLYLNRK”, the “soluble fraction (log2)” value is -1.87.

Regarding “HMIGVNMEKSTVEKFANELNLPIDLLLKQLESAGIKKTSGAEELLEADKSALLNYLQIEHGA”, the “soluble fraction (log2)” value was found to be 0.725.

Turning to “HMIGVQEFAMTYALTRRETEITQLIIQGKSNAMIAGELFISETTVKKHVSNIFEKTGVSRREELMVRVQAE”, the “soluble fraction (log2)” value is -1.98.

For “HMIHANGLTDRQEMILEFIRSYISENNYPPSVREIGKGVGLASSASVHNNMKKLASLGFLNWDTD”, the “soluble fraction (log2)” value is -1.93.

On to “HMIHFDHPERSILDTMLYEKKGMTAQSARNRLAAYQFQGEDVFKPVSVLSGGELSRITLAIKNAMADK”, for which the “soluble fraction (log2)” value was -0.36.

In the case of “HMIHQPNNETTRNLIAGVVKKSLSVWETRVQVDGVDVTTAKDNLAEVHINIRYRLRHNQTPASLGLRLNLG”, the “soluble fraction (log2)” value was -0.0232.

Consider “HMIHSEDMDDHILGHKLVDQYLNKHIEFDNIKKAWNYHTVAIKKFGRYPHRNKILKRESTIEEIDFLKQP”, for which the “soluble fraction (log2)” value stood at 0.252.

“HMIHSEEIQDHIFVKQLGEVFLRNHINYENIMKSWDDHTNVIKRFRRYPHRNKILNRESTIDEISFLKE”: the “soluble fraction (log2)” value turned out to be 0.176.

For the sequence “HMIIDTELMTRVMKFGFSQADASDLVAQHSDDLLRTAISRVEARAESKGMTPLETPAGYFRWTLQDLVRNP”, the “soluble fraction (log2)” value was -2.04.

In the case of “HMIIIMKKSATNSEVRKVIERAEKEGLTVQVNQLEKQQVLGLVGDTRLIQDVAFLRYEGVENVERI”, the “soluble fraction (log2)” value is -2.37.

Take “HMIILYTDEQQRIIDRLNEFIGEQPSQNEAAKLLGISAPILTNLRKGTYTGTVDKFMNKLAAYFNIKADLG”: the “soluble fraction (log2)” value was -1.3.

Regarding “HMIIMVNLYQIWDKEVQGLDSVGAKPEQIEARRQAIAAHFESKARQAGMSSKDIYATLDNFDTYSRQKTS”, the “soluble fraction (log2)” value is -2.26.

Consider “HMIINFDAIRLTTELNKYNRHKAIPNSFFDGTFTILDVRDLYDSLSPKVQKIADTLIEQYNVDVKQ”, for which the “soluble fraction (log2)” value is -1.82.

For “HMIISMKKGATPQEISHVRKLIEELGYKVHESQGSERMVFGAIGDERSKHRLTSLEAQPGVEKVIPILA”, the “soluble fraction (log2)” value was determined as 0.0278.

Consider “HMIISMKKTATKEQIAHVRELIEGMGYKAHMSVGAERVIFGAIGDERGKERLVSLEAQPGVEKVIPIL”, for which the “soluble fraction (log2)” value is -0.445.

Consider “HMIITLNIENLKRARENAGLTQTQAAQKIGVSDGTYKNYEQGKREPNGDKIVTIANAFGVTTDYLLGR”, for which the “soluble fraction (log2)” value was -0.475.

As to “HMIIVMRKGATEAQVNDIVERVRAAGFGVHLSQGEERTIIGAIGGDRAVLADLNLEAAPGVERVTPIS”, the “soluble fraction (log2)” value is -0.176.

For “HMIIYGLNPVKDFINLFPNKISTLFISKNKLSDSEMKSVVNINTVYVSDAELKRITGTTKHQSLAAEID”, the “soluble fraction (log2)” value is -1.2.

Regarding “HMIKILGSAYRHGLDDDDILRAWNYHIQEFFEGEDPEKIVRLGFDTHGRLLEIGGEIYPGGGEKIFHAM”, the “soluble fraction (log2)” value is -0.733.

As for “HMIKITLPDGSVKEYKKGITPAEVAQSISEGLARNVISASYNGKTIETVTPLTTDGSLVLYTWDSPEGK”, the “soluble fraction (log2)” value amounted to 0.0404.

In the case of “HMIKLTVRQQEILDLIARSIDQTGFPPTRAEIAAELGFKSVNAAEEHLQALARKGVIEMVPGISRGIRLVQ”, the “soluble fraction (log2)” value was -1.48.

In the case of “HMIKRNPLDEIEGVGPGRKKALLHAFGSAKGVSRASVVDLVKVEGVSQALAERIHDFFHPATR”, the “soluble fraction (log2)” value is -0.299.

As for “HMIKSIRELAEVITLWKNQGKTILIAEHRLSYLMDLADRVLYMKDGQIENDFSMADFRKIPPDEISRMGLR”, the “soluble fraction (log2)” value was found to be 0.103.

With “HMIKVAANESNRSDVLEIVRLFRVRVVDVNPESLTIEATGAEGKIDALLGLLEHYGVIELVRSGAVAVT”, the “soluble fraction (log2)” value is -1.86.

As to “HMILESREKYLGEVLEVLVEEEKEGEYFGYSQNYLRVKFKLEEKNLINQLINIKIKSIEDDILIGEKEN”, the “soluble fraction (log2)” value was -3.46.

Turning to “HMILKNVTSDLANKRLDKVASILFQTYSRTQIKKWILEGRVLVNGEISNPKDHVHENDEIEINPI”, the “soluble fraction (log2)” value is -1.9.

On to “HMIMISKSFEINEDNINKRLDIFLTENLDGLSRGIVQKYISLEQITVNKESSHKDYRLKLDDFIEVKIQAH”, for which the “soluble fraction (log2)” value is -4.

Take “HMIMNDIQAKVLEIAETKDLGSITYYRLSKMLGVDHPYRVKYAIDKLIEKGLLTAKSDGSITKAI”: the “soluble fraction (log2)” value was -1.47.

Turning to “HMIMTTKVSGIMFDKFNPSAILNINGMDYLVRSGDIINGYKILSIGQETVTVQYGANVYKASVG”, the “soluble fraction (log2)” value is -4.48.

For “HMIMVAGHLQIKKGKYYMVLELKSESGERKTKWISTGLSAKGNKRKAEAMLEEARENYQSTDA”, the “soluble fraction (log2)” value was -1.13.

Take “HMINIFKVKKAMEEIFASEWEDSPYTDQKISQILWSRGFSVSTGLVEKYRGQMGVPDANSRLNLN”: the “soluble fraction (log2)” value was -2.49.

As to “HMINIGANIRAIRKQKNIKQVDLVRLLQLEGVEITRETLVKIESGVQHIKASQLRGIRDALGTTYDELL”, the “soluble fraction (log2)” value was -2.88.

As to “HMINITALVKQLGGVDISKFNSAFKLLQQGKPLNTISNKVMADTFVALMKNSDEALNTKFRAAFKKI”, the “soluble fraction (log2)” value is -0.441.

For the sequence “HMINKIANLSAELRMEGLPVSIRSTQAAVKIYMDLGGDDRNLLKTALMSIYVKDRYDIPKFNKVFEKLFA”, the “soluble fraction (log2)” value is -1.66.

For the sequence “HMINKQPKDYEYFLEKWHFTQTEKHQLHNLILKLNIRYPNKDFLKITENLDNGKLVLKKLEERLSKT”, the “soluble fraction (log2)” value is -1.33.

Consider “HMINNINKLPETQFIKLFANIFENSQFIAVALYKKKGDGFSDFKDLINKIMDIFENTTKEKKLKILNA”, for which the “soluble fraction (log2)” value is -0.381.

As for “HMINPASEKQLSFANSLIAKKEGGTETLNHYLHNRKVSSLEELDRKDVSEIINALKFAKEVT”, the “soluble fraction (log2)” value amounted to 0.641.

With “HMINRPVYVPLYTNLDVKDAAEIAEKLEENNIAYKLEDQGETILVNPEQKYKVRLMLAQEGLPKG”, the “soluble fraction (log2)” value turned out to be 0.0786.

For the sequence “HMINSFDYLQAIFTELMKSQSKMTNQDAAKRLFMQGKVAVSNRDREGLRMVLAQLVTLLPKEELGGLSTVS”, the “soluble fraction (log2)” value was -1.38.

In the case of “HMIPESVQGIEEFLATGALKGIGKKTAAAIVHKFGKDTLRIMEEEPERLAEVSGIGEKKAAAIGEAFALH”, the “soluble fraction (log2)” value is 0.134.

“HMIPNPMTDRELEVLGLLASGKTYKQVARALDLSQSTVRNHLHNVYHKLNVVDRAQAVIVSRENGW”: the “soluble fraction (log2)” value was -0.379.

As to “HMIPPGTITIEGAITKVPVFLDGKQIGTVPLTKEDVEPGKYRIRVLGVGRVITIDPGEKENVLFSGEDLGL”, the “soluble fraction (log2)” value was -0.0563.

On to “HMIPTDPNGDLIKILYTSDQINELYARAKLNDVEDLFLDWTKNVLGESNFEETGPTKNEYLIPQ”, for which the “soluble fraction (log2)” value is -0.0775.

Turning to “HMIPTTELAERLGTTKVANMIMLGALIKASGIISFDDMIKNLGELLGEGKAKLIKLNKEALEVGFN”, the “soluble fraction (log2)” value amounted to 0.139.

“HMIPYSDLLKLLSNDAMPKFRNKDGWAKIHALETYLASRWSYQEYGFASFTVLLETVHNAEIRNDSVRLM”: the “soluble fraction (log2)” value was -0.479.

Consider “HMIQTMVVTDLKNGTIFKENGHPFIVLKYEHIKVSRGSAQVRVKMKNLITGQVLEKSWQSTAHVDDT”, for which the “soluble fraction (log2)” value was -3.24.

As to “HMIRMPNLIGLSVRSAEQQLVIAGLKKGIVHQVNDPRLKEVIDMQALGHKITAGSSIPKGTEVDLYIGNGT”, the “soluble fraction (log2)” value is -0.944.

With “HMISAVDLMAARRKIEAGITNLQPGQAFTLPNKVGWVKRMTGGSYFIQGNGGYTASVRTISEAIQAAAMLL”, the “soluble fraction (log2)” value was -3.11.

Turning to “HMISDQENDLNLKHLFDTADQNKDGLILESELKMLMTNLEINKETYDTVMKQITPAGMDYKTFSSL”, the “soluble fraction (log2)” value stood at 0.293.

In the case of “HMISFLNFVRKEIDASQLKDSTKQNHLTTIGLLQSFKPSIEFKDLNYNFITSFEKYLYDAGYQM”, the “soluble fraction (log2)” value amounted to 0.0114.

On to “HMISKQQRQALILDIIQKQSITSQEALLTELQRHHVMTTQTTVSRDIRALGIVRIKDVNGELSYQQLQ”, for which the “soluble fraction (log2)” value was -2.69.

Turning to “HMISKRFQIDEDNSNKRIDIFLTQSLDSISRGIVQQLILENKVEVNGGPVKRNYLIKIGDVIDVKIDL”, the “soluble fraction (log2)” value was -2.96.

As to “HMISKTFEINEDNINNRLDIFLANQFDNLSRGIVQKLIESHSVSVSGNFVEKDYKLKLGDIIDVEINLS”, the “soluble fraction (log2)” value is -1.64.

“HMISLNEDQKLAILNEWNQRPDDPPFIKELIELVFPDIPEEAKTGRSRYGIAIKKFLAEKSLQAKV”: the “soluble fraction (log2)” value is -0.197.

Consider “HMISLPSYIREEATEVYNRLHDLGLEYTSLDVNDDSIPKGYVVRTVPEAGASVPAGQVVTVYVSLG”, for which the “soluble fraction (log2)” value was -0.829.

As for “HMISQLRGKVLGTDRDALVIDVGGVGFRVSATAGARALAGQSGNEARLFTEMVVREDSIDLFGF”, the “soluble fraction (log2)” value was 0.0812.

For “HMISRKIKELRLSHDLTQKDLADYLNLTPKMVSFYELGQRVPPSDIILKLAEKFHVSTDYLLGNEDRP”, the “soluble fraction (log2)” value is -0.196.

Consider “HMITDNEFLRIVSFLKQRYGIDMSQKKVIMNGRLENYLKSGGWSSFDEYMNDVEKDTSGDLEKTLVNFLTT”, for which the “soluble fraction (log2)” value is -1.38.

Consider “HMITETIGANIKTLRDKFRMSQQDLASKMNTARPVISNWENGKTEPSSSQLLKLAKIFDTSTDKILGNV”, for which the “soluble fraction (log2)” value was 0.0689.

Regarding “HMITKEDVANKKVNLLFFGNFHKMKLPDFEWGITEMMQDRDYLYGSLTKDLYFLGLVLDRKYKI”, the “soluble fraction (log2)” value was 0.241.

On to “HMITKENYLEKIKEIKVNEFPASMRELYDFFNEATRNGTDWSAYEEGNVKYVVDAYLERLNLLYKSN”, for which the “soluble fraction (log2)” value was -1.01.

For “HMITLYIHNLEEVGKRLDHYLVSNLDDHSRSQIQSWIRSGSILVNDRSVKTGYSLELNDQILINPPK”, the “soluble fraction (log2)” value was -2.51.

As for “HMITNSTEIEAMIDSLIKENPEQAEQYRNGNTKVVGWFVGQMMKASKGKANPQVVGDLLAQKLVG”, the “soluble fraction (log2)” value amounted to 0.0621.

As for “HMIVAHEINRHLGESDQPVEIPDNRREGAVAELLKTFNNDDAFREMDDGKYEVALDGEKVREAARSLLA”, the “soluble fraction (log2)” value was found to be 0.0479.

Regarding “HMIVDARNREINLGSHVRYVDTGTVGEVTDSKVENDASWVKIDKTNLWYLANKLELLNDEDFKT”, the “soluble fraction (log2)” value stood at 0.0789.

On to “HMIVDINDVRIDKYIADNTDYSRNLILNLIKNGDILVNDSKIKPSYKVKQGDKITINNVKTD”, for which the “soluble fraction (log2)” value was found to be 0.332.

On to “HMIVKQPDIRKQELLDIGVRLYFEAGEKGVSIQQVVKQAGVATGLFYYYFSSKDAFLDEALNDYID”, for which the “soluble fraction (log2)” value amounted to 0.0613.

On to “HMIVLPGEELEVHIVQEGKEDGQGVAYLDDGTMVVVEGGRPYVDSFAYVAVTRVLQTGAGRIIFAHPTR”, for which the “soluble fraction (log2)” value was -2.54.

As to “HMIYNSGTTDSRGEAIVGGYLVTVTDTDTKDPVANAAVTLHKDNSISIRLPNSRLLDYADQTTVTVQLV”, the “soluble fraction (log2)” value is 0.0328.

In the case of “HMKAEKEIEKIKFTIYNEFKRKQEENHFLPPWDGTKMLRQFVLGVVANNPKYQHVNTDILYRDLLLLYYQ”, the “soluble fraction (log2)” value was -2.

The values are drawn from the domain aggregation screens of Martell et al. (2025).
